{
  "source": "patent US20030125515A1",
  "about": "(published 2003)",
  "binders": {"B1": {"name": "end-locked five-helix protein having SEQ ID NO.: 2 (designed binder)", "chain": "MCGGGSQLLSGIVQQQNNLLRAIEAQQHLLQLTVWGIKQLQASGGSGGSWMEWDREINNYTSLIHSLIEESQNQQEKNEQELLSGGCGGSQLLSGIVQQQNNLLRAIEAQQHLLQLTVWGIKQLQASGGCGGSWMEWDREINNYTSLIHSLIEESQNQQEKNEQELLSGGSGGSQLLSGIVQQQNNLLRAIEAQQHLLQLTVWGIKQLQASGGGC", "modifications": "disulfide bond between the cysteine of the N-terminal linker and the cysteine of inside linker 2; disulfide bond between the cysteine of the C-terminal linker and the cysteine of inside linker 3 (as in FIG. 3b)"}},
  "key": {"[1]": {"biological_target": "gp41 of HIV HXB2 (from the HXB2 gp160 gene, on pseudotyped virus) (HIV-1 HXB2, UniProt P04578 33-856)", "test": "cell-based or functional assay"}, "[2]": {"biological_target": "gp41 of HIV JRFL (from the JRFL gp160 gene, on pseudotyped virus) (HIV-1 JRFL)", "test": "cell-based or functional assay"}},
  "data": [
    {"binder": "B1", "values": [
      {"measurement": "EC50 in the virus-cell fusion assay (HIV luciferase assay, HOS-CD4 cells)", "setting": "[1]", "value": 15, "unit": "nM"},
      {"measurement": "EC50 in the virus-cell fusion assay (HIV luciferase assay, HOS-CD4-CCR5 cells)", "setting": "[2]", "value": 0.75, "unit": "nM"}
    ]}
  ]
}
